The values below come from the emibetuzumab library of Makowski et al. (2022).

B1: VH:VL chains; a variant is named by its letters at X, in order (parent)
chain 1: QVQLVQSGAEVKKPGASVKVSCKASGYTFTDYXMHWVRQAPGQGLEWMGXVNPNXXXTTYNQKFEGRVTMTTDTSTSTAYMELRSLRSDDTAVYYCARXNXLDXWGQGTTVTVSS
chain 2: DIQMTQSPSSLSASVGDRVTITCSVSSSVSSIYLHWYQQKPGKAPKLLIYSTSNLASGVPSRFSGSGSGTDFTLTISSLQPEDFATYYCQVYSGYPLTFGGGTKVEIK

In the series the parent is B1. The experiment in a line: yeast display scFab, FACS + sequencing. An outline of the steps: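 Non-specific binding was called from deep sequencing of sorted yeast cells displaying a heavy-chain CDR mutant scFab library. Cells labelled with anti-Myc and biotinylated ovalbumin (260 μg/mL in PBSB, 3 h, room temperature) or soluble membrane proteins (130 μg/mL, 20 min on ice) were FACS-sorted, collecting the top 25% and bottom 10% of binders from two replicates. A sequence was positive when present in ≥3 of 4 pooled positive samples and absent from all negatives, and negative under the converse rule.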
For FRRGDAVA, the non-specific binding call is “binds”.
YRKRGDVV: the non-specific binding call is “binds”.
Take VRRGDSSD: the non-specific binding call is reported as “no binding”.
Under DRRANFLY stands “binds”; under VRRETVSD, “binds”; under DRRGDAVY, “no binding”.
Under DRRGDAVA stands “no binding”.
Under FRRGDAGD stands “binds”.
On to YRKGGSGY, for which the non-specific binding call is given as “binds”.
Take YRKGGSGV: the non-specific binding call was “binds”.
For the variant YRKGGSGA, the non-specific binding call is “binds”.
Under VRKKGVSS stands “binds”; under VRKGGSLD, “binds”; under VRKGGSGV, “binds”.
YRKKGDLA: the non-specific binding call was “binds”.
Under YRREGSVV stands “binds”.
As to YRRGDASD, the non-specific binding call is “binds”.
In the case of YRRGDSLY it was “binds”.
DRRGDSLV: the non-specific binding call is given as “no binding”.
Under YRRGASWD stands “binds”.
Take YRREGAGD: the non-specific binding call is listed as “binds”.
In the case of YRKRGAAA, the non-specific binding call is recorded as “binds”.
In the case of YRKRGAAD it was “binds”.
Consider YRRESSGV, for which the non-specific binding call is “binds”.
For YRRESSGY, the non-specific binding call is “binds”.
On to SRRETFVF, for which the non-specific binding call was “binds”.
Turning to YRREGSGV, the non-specific binding call was “binds”.
With DRRGDSSA, the non-specific binding call was “no binding”.
In the case of YRKKSVGA it was “binds”; in that of YRRGDDGD, “binds”.
In the case of YRREGSAV it was “binds”.
In the case of YRKRSVVF chain 1 S115F it was “binds”; in that of ARKGSSGD, “binds”; in that of YRRGDSAD, “binds”.
On to YRRAADSD, for which the non-specific binding call is listed as “binds”.
In the case of ARKTGAGA it was “binds”; in that of YRKGGFVA, “binds”.
Under YRREGSLD stands “binds”; under YRREGSLA, “binds”; under YRKGGFSS, “binds”.
Under ARRGAAGV stands “binds”.
On to DRRGDDGA, for which the non-specific binding call is listed as “no binding”.
For DRRGDDGV, the non-specific binding call is given as “no binding”.
As for VRKRGALD, the non-specific binding call was “binds”.
Consider YRKKGALY, for which the non-specific binding call is “binds”.
As to FRKGGSGV, the non-specific binding call is on record as “binds”.
In the case of FRKGGSGD it was “binds”; in that of FRKGSAVD, “binds”; in that of FRKRGSAV, “binds”.
Take DRREDALD: the non-specific binding call is recorded as “no binding”.
Under VRRGDDVY stands “no binding”.
In the case of FRKRGAWY it was “binds”; in that of YRRGAAAV, “binds”; in that of YRRGAAAA, “binds”.
In the case of YRKKTDWS it was “binds”; in that of FRKGGSLD, “binds”.
Regarding YRKRGSSA, the non-specific binding call is given as “binds”.
Under YRKGSAWD stands “binds”; under YRKGSSAA, “binds”; under FRRGDAAV, “binds”.
Under VRRAADSD stands “binds”; under YRKRGVGV, “binds”.
In the case of YRKGSSGV it was “binds”; in that of YRKGSSGA, “binds”; in that of YRKGSSGF, “binds”.
As for YRKGSSGD, the non-specific binding call was “binds”.
In the case of FRKGTALD it was “binds”.
In the case of VRKGGSVY it was “binds”; in that of FRRGGAAA, “binds”.
Consider YRRGDSGV, for which the non-specific binding call is reported as “binds”.
In the case of VRRGDAGY it was “no binding”.
In the case of YRRESAGF it was “binds”; in that of YRKRTFGA, “binds”.
Under YRRGDAAF stands “binds”; under VRKGSSGD, “binds”; under ARRGAYGV, “binds”.
With VRRGGAAA, the non-specific binding call was “binds”.
In the case of VRKGGVAV, the non-specific binding call is “binds”.
In the case of YRRGDAWY it was “binds”; in that of YRRGDAWD, “binds”; in that of YRRGAAGD, “binds”.
With YRKGTAGD, the non-specific binding call is “binds”.
With YRKRGSGV, the non-specific binding call was “binds”.
YRKRGSVF: the non-specific binding call is given as “binds”.
In the case of YRKRGSVV it was “binds”; in that of VRRGDSVA, “binds”; in that of YRRANFLD, “binds”.
In the case of VRKRGSSS it was “binds”; in that of YRKGGSAA, “binds”.
As for FRREGSSD, the non-specific binding call is reported as “binds”.
In the case of YRKGSSVD it was “binds”; in that of YRKGSSVS, “binds”; in that of YRKRGAVD, “binds”.
In the case of FRRGDALD it was “binds”; in that of YRREGDWA, “binds”; in that of YRKRGSLV, “binds”.
In the case of YRKRGSLY it was “binds”; in that of YRKGSALD, “binds”.
With VRRANFLD, the non-specific binding call is reported as “binds”.
For the variant YRRGASSS, the non-specific binding call is reported as “binds”.
For FRRGDSAA, the non-specific binding call is recorded as “binds”.
For the variant YRKGGSWS, the non-specific binding call is given as “binds”.
Under YRKGSASD stands “binds”; under VRRGDVGV, “binds”; under FRKRGSVF, “binds”.
Consider VRRGDFWA, for which the non-specific binding call was “no binding”.
In the case of YRRGDAGF it was “binds”; in that of YRRGDAGS, “binds”; in that of YRRGASGV, “binds”.
YRRGDSSA: the non-specific binding call is “binds”.
As to YRRGDSWD, the non-specific binding call is reported as “binds”.
In the case of DRRGDDVF it was “no binding”; in that of YRRGDFWA, “no binding”; in that of YRKGSSLF, “binds”.
Regarding SRKKGDGS, the non-specific binding call is reported as “binds”.
Consider YRKGSAGD, for which the non-specific binding call is listed as “binds”.
In the case of YRRGAAWA, the non-specific binding call was “binds”.
In the case of FRKRSFSS it was “binds”.
In the case of YRKGGSVS it was “binds”; in that of YRKGSSWD, “binds”.
As for YRKRGAGD, the non-specific binding call is recorded as “binds”.
YRKRGAGA: the non-specific binding call is “binds”.
In the case of VRKKGYVY, the non-specific binding call is reported as “binds”.
Consider YRKGSAAA, for which the non-specific binding call is on record as “binds”.
In the case of DRRGDASD it was “no binding”; in that of VRRASSVA, “binds”; in that of DRREDSSA, “no binding”.
As to DRREGYGA, the non-specific binding call is given as “binds”.
